The values that follow come from patent US8993719B2, “Methods and compositions related to mutant Kunitz domain I of TFPI-2” (The Regents of the University of California, priority 2005, dated 2015).

The target of assay [1] is Mouse plasmin (mouse, UniProt P20918 98-812, limits assumed). Put plainly: mouse plasmin inhibition assay.
Assay [2] concerns the target T1, Human plasmin (Homo sapiens, UniProt P00747).
T1 construct: purchased Enzyme research laborotories
Put plainly: Plasmin inhibition assay (residual amidolytic activity, chromogenic substrate S-2251). In kind it is biochemical. The conditions noted are these: for fold stronger binding to plasmin than WT KD1: relative to WT KD1. From the text: Materials and methods: The chromogenic substrates H-D-Val-Leu-Lys-p-nitroanilide (S-2251) was purchased from DiaPharma Group Inc. (West Chester, Ohio). Human plasmin was purchased from Enzyme research laborotories. Bovine aprotinin (BPTI) was used from Zymogenetics. Escherichia coli strain BL21(DE3)pLys and pET28a expression vector were products of Novagen Inc. (Madison, Wis.). The QuikChange® site-directed mutagenesis kit was obtained from Stratagene (La Jolla, Calif.).
(§1) Plasmin Inhibition Assays. […] The chromogenic substrate S-2251 was then added, and residual amidolytic activity was measured in a Molecular Devices UVmax kinetic microplate reader at different end points (0.5 and 1 hr) and S2251 (0.5 and 1 mM) concentrations. Plasmin inhibitory data were analyzed according to the quadratic binding expression.

For assay [3], the target named is mouse plasmin (Mus musculus, UniProt P20918). Put plainly: Mouse plasmin inhibition. In kind it is biochemical. The conditions noted are these: 1 μM inhibitor; FIG. 6. From the text:
Both WT KD1 and L26R inhibited mouse plasmin effectively. […] Since both the wild-type and the mutant inhibit mouse plasmin, one can use the mutant to show efficacy in vivo in an animal model of bleeding.

Assay [4] deals with intrinsic pathway of blood coagulation. Put plainly: aPTT (activated partial thromboplastin time) of normal plasma. The conditions noted are these: normal human plasma, 5 min at 37° C., FIG. 5. It counts as biochemical. The procedure: Seventy-five microliter of 25 mM CaCl2 prewarmed to 37° C. was then added and the time needed to form the clot through the intrinsic pathway of blood coagulation was noted.
A common procedure to test inhibition of clotting is to examine the aPTT (activated partial thromboplastin time) of normal plasma. In this test, surface activator plus phospholipid was mixed with normal plasma in equal amounts (75 microliter). […] Seventy-five microliter of 25 mM CaCl2 prewarmed to 37° C. was then added and the time needed to form the clot was noted.
In the aPTT system, coagulation is initiated by the activation of factor XII to Factor XIIa by contact phase involving the kallikrein system. Factor XIIa then activates factor XI to factor XIa in the coagulation cascade.

Assay [5] concerns mouse tail vein bleeding model. Put plainly: Mouse tail vein bleeding model. In kind it is in vivo. Particulars: intravenously, about 100 microgram/mouse, compared to saline control. An excerpt:
A mouse tail vein bleeding model has been described to study the efficacy of a snake plasmin inhibitor (Masci et al. Blood Coagulation and Fibrinolysis 2000, Vol 11, pages 385-393). […] The doses of the plasmin inhibitors used in these experiments were similar to that used during human CPB (cardiopulmonary bypass) surgery, adjusted to the mouse weight. The Animal Ethics Committee of UCLA approved all mice experiments and the dose used in human surgery adjusted to mouse weight was a realistic basis for these initial studies. The serum BUN/Creatinine levels were normal after two days and seven days following administration of the drug.

A further assay concerns the target kallikrein (Homo sapiens, UniProt P03952). Particulars: Petersen et al 1996; cited from earlier work.
The target in the next assay is factor XIa (Homo sapiens, UniProt P03951). The conditions noted are these: Petersen et al 1996; cited from earlier work.
For assay [6], the target named is T2, Human plasmin (human, UniProt P00747 97-810, limits assumed).
T2 construct: Bought enzyme
Put plainly: plasmin inhibition assay, residual amidolytic activity on S-2251. The procedure: as §1
In control experiments, it was first studied if there was any substrate-induced displacement of bound inhibitor by increasing substrate concentrations.

Assay [7] addresses T2, Human plasmin. Put plainly: plasmin inhibition assay, residual amidolytic activity on S-2251, quadratic binding fit. How it is done: as §1
(§2) The incubation time was 1 hr at 37° C. and substrate concentration was 1 mM for the remaining activity measurements.

The target of assay [8] is T2, Human plasmin. Put plainly: plasmin inhibition assay, 1 hr at 37° C., 1 mM S-2251. The procedure: as §1, §2

Where “and” joins values, the source holds several entries; their conditions need not be identical. Equal values may be shown once. Entries after “also recorded” stand apart in the source; their conditions may differ.

T2 sequence (P00747 97-810 limits assumed): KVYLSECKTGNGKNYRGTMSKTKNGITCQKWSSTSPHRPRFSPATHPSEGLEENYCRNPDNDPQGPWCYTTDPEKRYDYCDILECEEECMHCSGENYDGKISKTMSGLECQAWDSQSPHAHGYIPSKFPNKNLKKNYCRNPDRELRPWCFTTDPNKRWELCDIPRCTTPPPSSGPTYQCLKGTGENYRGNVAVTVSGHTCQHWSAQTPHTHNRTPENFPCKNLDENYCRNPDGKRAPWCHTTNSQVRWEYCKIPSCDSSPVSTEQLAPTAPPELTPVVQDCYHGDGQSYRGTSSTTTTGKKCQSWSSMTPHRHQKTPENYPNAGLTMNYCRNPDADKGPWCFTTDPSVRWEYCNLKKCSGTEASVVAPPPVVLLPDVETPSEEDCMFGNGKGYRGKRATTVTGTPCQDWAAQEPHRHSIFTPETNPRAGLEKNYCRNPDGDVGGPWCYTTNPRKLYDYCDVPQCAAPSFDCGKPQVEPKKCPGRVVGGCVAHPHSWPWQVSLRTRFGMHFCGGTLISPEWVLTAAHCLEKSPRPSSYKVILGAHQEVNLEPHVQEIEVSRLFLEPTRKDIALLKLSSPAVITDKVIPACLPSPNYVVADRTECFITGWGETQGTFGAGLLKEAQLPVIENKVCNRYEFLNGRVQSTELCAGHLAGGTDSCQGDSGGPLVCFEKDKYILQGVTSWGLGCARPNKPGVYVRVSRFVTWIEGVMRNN
T1 sequence (P00747 581-810 limits assumed): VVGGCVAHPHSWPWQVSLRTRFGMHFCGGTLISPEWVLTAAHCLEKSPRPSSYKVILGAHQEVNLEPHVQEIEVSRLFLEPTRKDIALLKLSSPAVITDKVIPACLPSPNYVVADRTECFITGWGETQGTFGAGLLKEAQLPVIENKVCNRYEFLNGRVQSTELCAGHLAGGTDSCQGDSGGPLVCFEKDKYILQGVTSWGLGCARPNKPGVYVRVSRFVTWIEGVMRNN
T1 sequence (P00747 97-580 partner limits assumed): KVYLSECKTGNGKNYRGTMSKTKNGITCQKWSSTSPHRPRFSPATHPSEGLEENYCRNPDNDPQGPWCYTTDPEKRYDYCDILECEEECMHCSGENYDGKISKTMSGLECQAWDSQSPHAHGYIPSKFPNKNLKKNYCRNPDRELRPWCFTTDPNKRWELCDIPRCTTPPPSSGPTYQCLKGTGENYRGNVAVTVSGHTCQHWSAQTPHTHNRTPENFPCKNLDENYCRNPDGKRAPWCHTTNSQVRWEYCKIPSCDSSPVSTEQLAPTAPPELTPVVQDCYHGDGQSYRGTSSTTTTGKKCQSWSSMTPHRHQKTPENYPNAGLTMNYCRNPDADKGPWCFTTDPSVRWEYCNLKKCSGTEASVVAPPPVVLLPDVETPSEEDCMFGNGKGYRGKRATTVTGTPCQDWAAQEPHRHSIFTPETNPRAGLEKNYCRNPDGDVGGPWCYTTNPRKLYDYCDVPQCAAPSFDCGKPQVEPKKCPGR
Chain of mouse plasmin (P20918 582-812 limits assumed): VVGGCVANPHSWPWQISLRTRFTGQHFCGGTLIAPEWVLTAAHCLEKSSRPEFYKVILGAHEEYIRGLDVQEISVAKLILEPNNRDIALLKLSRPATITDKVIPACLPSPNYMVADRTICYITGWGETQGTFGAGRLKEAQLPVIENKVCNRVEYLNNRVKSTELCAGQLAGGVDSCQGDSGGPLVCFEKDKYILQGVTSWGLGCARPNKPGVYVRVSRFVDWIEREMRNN
Chain of mouse plasmin (P20918 98-581 partner limits assumed): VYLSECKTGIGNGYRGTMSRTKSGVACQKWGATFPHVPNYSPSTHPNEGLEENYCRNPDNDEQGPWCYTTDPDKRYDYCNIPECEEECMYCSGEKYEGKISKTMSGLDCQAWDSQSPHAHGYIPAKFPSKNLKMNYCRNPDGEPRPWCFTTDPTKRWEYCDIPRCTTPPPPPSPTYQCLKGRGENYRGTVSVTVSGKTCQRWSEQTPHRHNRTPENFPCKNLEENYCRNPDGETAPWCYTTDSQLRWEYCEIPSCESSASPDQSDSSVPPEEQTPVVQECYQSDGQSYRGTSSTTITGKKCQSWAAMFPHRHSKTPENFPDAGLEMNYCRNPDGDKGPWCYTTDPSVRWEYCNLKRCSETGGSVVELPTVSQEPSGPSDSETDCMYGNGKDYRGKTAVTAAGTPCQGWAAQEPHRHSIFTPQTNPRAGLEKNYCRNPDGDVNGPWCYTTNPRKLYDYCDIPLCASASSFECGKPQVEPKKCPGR
Chain of Mouse plasmin (P20918 98-812 limits assumed): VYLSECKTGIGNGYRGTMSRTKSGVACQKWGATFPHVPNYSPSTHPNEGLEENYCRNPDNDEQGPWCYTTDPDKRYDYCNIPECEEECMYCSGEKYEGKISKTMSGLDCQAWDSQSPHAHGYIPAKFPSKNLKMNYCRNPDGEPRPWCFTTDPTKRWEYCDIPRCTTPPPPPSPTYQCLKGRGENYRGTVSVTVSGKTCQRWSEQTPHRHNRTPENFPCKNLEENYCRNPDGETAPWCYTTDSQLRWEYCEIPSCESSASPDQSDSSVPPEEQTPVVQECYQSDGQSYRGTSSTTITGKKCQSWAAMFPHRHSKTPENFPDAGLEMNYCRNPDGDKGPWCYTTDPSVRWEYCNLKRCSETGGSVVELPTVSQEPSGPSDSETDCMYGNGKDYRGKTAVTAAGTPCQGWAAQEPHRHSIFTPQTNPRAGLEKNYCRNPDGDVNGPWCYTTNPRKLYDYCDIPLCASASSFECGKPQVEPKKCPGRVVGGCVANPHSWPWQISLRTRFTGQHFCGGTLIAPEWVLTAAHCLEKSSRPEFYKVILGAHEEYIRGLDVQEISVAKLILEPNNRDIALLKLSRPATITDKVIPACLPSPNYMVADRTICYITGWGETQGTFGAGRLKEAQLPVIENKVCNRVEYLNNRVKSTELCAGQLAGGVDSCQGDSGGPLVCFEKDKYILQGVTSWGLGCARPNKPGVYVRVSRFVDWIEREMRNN
Chain of factor XIa (P03951 388-625 limits assumed): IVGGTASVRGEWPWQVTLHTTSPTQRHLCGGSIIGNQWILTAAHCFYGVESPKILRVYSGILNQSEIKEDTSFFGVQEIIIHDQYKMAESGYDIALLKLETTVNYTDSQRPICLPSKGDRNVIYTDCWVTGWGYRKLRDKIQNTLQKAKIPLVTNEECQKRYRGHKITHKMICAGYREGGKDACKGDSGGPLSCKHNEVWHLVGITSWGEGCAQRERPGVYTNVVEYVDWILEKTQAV
Chain of factor XIa (P03951 19-387 partner limits assumed): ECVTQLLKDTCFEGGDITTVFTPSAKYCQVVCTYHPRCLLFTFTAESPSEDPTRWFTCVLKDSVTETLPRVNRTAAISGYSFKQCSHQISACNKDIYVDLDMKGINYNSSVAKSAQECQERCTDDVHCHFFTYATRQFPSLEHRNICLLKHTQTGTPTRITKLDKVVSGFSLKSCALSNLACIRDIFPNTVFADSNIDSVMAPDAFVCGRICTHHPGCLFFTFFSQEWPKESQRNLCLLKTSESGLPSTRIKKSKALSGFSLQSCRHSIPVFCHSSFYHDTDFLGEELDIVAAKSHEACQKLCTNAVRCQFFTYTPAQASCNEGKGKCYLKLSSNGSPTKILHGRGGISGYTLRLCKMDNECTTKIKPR
Chain of kallikrein (P03952 391-638 limits assumed): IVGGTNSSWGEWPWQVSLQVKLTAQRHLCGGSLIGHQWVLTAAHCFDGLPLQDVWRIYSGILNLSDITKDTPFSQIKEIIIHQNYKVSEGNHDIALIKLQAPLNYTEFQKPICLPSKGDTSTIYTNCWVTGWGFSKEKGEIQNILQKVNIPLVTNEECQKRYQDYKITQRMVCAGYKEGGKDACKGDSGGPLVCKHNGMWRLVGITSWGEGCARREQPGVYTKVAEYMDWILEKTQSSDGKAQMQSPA
Chain of kallikrein (P03952 20-390 partner limits assumed): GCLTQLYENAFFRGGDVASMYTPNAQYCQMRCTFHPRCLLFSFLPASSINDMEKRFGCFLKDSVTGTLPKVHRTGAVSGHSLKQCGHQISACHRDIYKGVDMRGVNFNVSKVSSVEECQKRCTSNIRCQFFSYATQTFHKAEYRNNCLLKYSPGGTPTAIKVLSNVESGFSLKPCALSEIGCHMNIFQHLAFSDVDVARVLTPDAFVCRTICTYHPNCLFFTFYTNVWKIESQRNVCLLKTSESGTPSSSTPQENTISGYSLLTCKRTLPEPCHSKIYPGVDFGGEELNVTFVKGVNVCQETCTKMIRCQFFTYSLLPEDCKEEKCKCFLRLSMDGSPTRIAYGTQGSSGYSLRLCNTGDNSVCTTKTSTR

B1: Wild type first Kunitz-type proteinase inhibitor domain of human TFPI-2 (KD1) (other)
chain: DAAQEPTGNNAEICLLPLDYGPCRALLLRYYYDRYTQSCRQFLYGGCEGNANNFYTWEACDDACWRIEKVPKV
notes: also called WTKD1; WT KD1
One may read the Kd as the free concentration of one partner at which half of the binding sites on the other are occupied at equilibrium, for simple one-to-one binding. Low values mean tighter binding, high ones weaker binding. A word on the Ki: it is a measure of affinity in units of concentration, obtained from inhibition or displacement. Turning to B1, the Kd with Mouse plasmin [1] is around 80 nM; with Human plasmin [7], 22 nM. In addition, the “substrate-induced displacement of bound inhibitor” value with Human plasmin [2] (increasing S-2251 concentration (0.5 and 1 mM)) is listed as “apparently no displacement of bound inhibitor; also recorded: not any significant substrate induced displacement of inhibitor”. In addition, the “inhibition of mouse plasmin at 1 μM” value in the assay with mouse plasmin [3] is reported as “Complete inhibition”. For the same molecule, the “inhibition of intrinsic pathway of coagulation (prolongation of aPTT clotting time)” value in assay [4] (listed as KD1 WT) was “prolongation of the aPTT; also recorded: inhibit the intrinsic pathway of coagulation”. For the same molecule, the “reduction in blood loss” value in [5] is reported as 67-70%. Further, in the assay with kallikrein, the inhibition of kallikrein result is “inhibits both kallikrein and factor XIa”. Also, the “inhibition of factor XIa” value with factor XIa is “inhibits both kallikrein and factor XIa”. The inhibition constant Ki in the assay with Human plasmin [6] was determined as 22 nM.

B2: KD1 R15K/L17R double mutant (R24K/L26R in KD1 numbering) (other)
chain: DAAQEPTGNNAEICLLPLDYGPCKARLLRYYYDRYTQSCRQFLYGGCEGNANNFYTWEACDDACWRIEKVPKV
notes: Made from KD1 by site-directed mutagenesis, with the His tag removed
For the molecule B2, the dissociation constant Kd with Human plasmin [8] turned out to be 3 nM. Besides, in the assay with Human plasmin [6], the Ki was 3 nM, the “fold stronger binding than WT KD1” value was 7 fold and the “fold stronger binding than the R15K mutant” value was around 2 fold.

B3: KD1 L17R mutant (L26R in KD1 numbering) (other)
chain: DAAQEPTGNNAEICLLPLDYGPCRARLLRYYYDRYTQSCRQFLYGGCEGNANNFYTWEACDDACWRIEKVPKV
notes: The His tag was removed; also called KD1 L26R; L26R KD1
On to B3, for which, in the assay with Mouse plasmin [1], the Kd is around 80 nM. In addition, the “fold stronger binding to plasmin than WT KD1” value in the assay with Human plasmin [2] (listed as L17R) is listed as “approximately 4 fold”. The “inhibition of mouse plasmin at 1 μM” value in the assay with mouse plasmin [3] is on record as “Complete inhibition”. The “inhibition of intrinsic pathway of coagulation (prolongation of aPTT clotting time)” value in assay [4] was “no inhibition (prolongation) of aPTT; also recorded: loses activity as an anticoagulant; also recorded: ineffective”; in assay [4] (listed as L26R KD1), “no effect on clotting”. In assay [5], the “reduction in blood loss” value was 67-70%. The inhibition constant Ki with Human plasmin [6] amounted to 6 nM. Besides, the “fold stronger binding than WT KD1” value with Human plasmin [6] is around 4 fold.

B4: KD1 R15K mutant (R24K in KD1 numbering) (other)
chain: DAAQEPTGNNAEICLLPLDYGPCKALLLRYYYDRYTQSCRQFLYGGCEGNANNFYTWEACDDACWRIEKVPKV
notes: Made from KD1 by site-directed mutagenesis, with the His tag removed; also called R24K mutant
Turning to B4, the “fold stronger binding to plasmin than WT KD1” value in the assay with Human plasmin [2] is “two-fold different”. Also, in the assay with Human plasmin [8], the Kd was 9 to 11 nM and 10 nM; the “fold difference of Kd against WT KD1” value came to 2 fold. The molecule further yielded a Ki with Human plasmin [6] of 10 nM.
